Data on 55 molecules can be found in patent publication US20200325187A1 (Genentech, published 2020).

First the molecules themselves.
T1: hVEGF-A (8-109) (human, UniProt P15692 214-315)
T1 sequence (looked up): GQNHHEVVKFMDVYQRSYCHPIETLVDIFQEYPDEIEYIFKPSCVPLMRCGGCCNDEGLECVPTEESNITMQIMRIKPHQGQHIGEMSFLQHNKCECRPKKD

The target of the assay is T1, hVEGF-A (8-109). Nature of the assay: spot phage ELISA. On the technique in general: ELISA stands for enzyme-linked immunosorbent assay.
Turning to GCNIMLPFWGCGRDFECLAGCVCQYYQSCGGS (designed binder) [9.54.90-2x63], the binding result was “binds”.

Consider GCNIMLPFWGCGRDFECLAGCVCQYYQSCGIA (designed binder) [9.54.90-2x2], for which the binding result is on record as “binds”.

In the case of GCNIMLPFWGCGRDFECLAGCVCQYYQSCGVH (designed binder) [9.54.90-2x90], the binding result is on record as “binds”.

For the molecule GCNIMLPFWGCGRDFECLAGCVCQYYQSCGTR (designed binder) [9.54.90-2x36], the binding result is given as “binds”.

Consider GCNIMLPFWGCGRDFECLAGCVCQYYQSCGFH (designed binder) [9.54.90-2x28], for which the binding result is on record as “binds”.

As to GCNIMLPFWGCGRDFECLAGCVCQYYQSCGLS (designed binder) [9.54.90-2x42], the binding result is on record as “binds”.

With GCDVMQPYWGCEMDFDCLAGCVCHWYNSCGSL (designed binder) [9.63-36], the binding result is “binds”.

As for GCDVMQPYWGCEMDFDCLAGCVCHWYNSCGSM (designed binder) [9.63-45], the binding result was “binds”.

For the molecule GCDVMQPYWGCEMDFDCLAGCVCHWYNSCGST (designed binder) [9.63.44-41], the binding result is “binds”.

As to GCDVMQPYWGCEMDFDCLAGCICHWYNSCGPE (designed binder) [9.63-66], the binding result was “binds”.

On to GCDVMQPYWGCKQDSDCLAGCICHWYNSCGTD (designed binder) [9.63-19], for which the binding result is recorded as “binds”.

Regarding GCDVMQPYWGCKQDFDCLAGCVCHWYNSCGPS (designed binder) [9.63-1], the binding result is given as “binds”.

Consider GCDVMQPYWGCEMDFDCLAGCVCHWYNSCGTP (designed binder) [9.63.44-44], for which the binding result was “binds”.

GCDVMQPYWGCEMDFDCLAGCVCHWYNSCGWD (designed binder) [9.63-40]: the binding result is on record as “binds”.

For GCDVMQPYWGCEMDFDCLAGCICHWYNSCGTR (designed binder) [9.63-61], the binding result is “binds”.

With GCDVMQPYWGCEMDFDCLAGCVCHWYNSCGFN (designed binder) [9.63.44-73], the binding result was “binds”.

With GCDVMQPYWGCEMDFDCLAGCICHWYNSCGAS (designed binder) [9.63-23], the binding result was “binds”.

For GCDVMQPYWGCEIDFDCLAGCVCHWYNSCGQV (designed binder) [9.63.44-55], the binding result is recorded as “binds”.

As to GCDVMQPYWGCKQDSDCLAGCVCHWYNSCGEN (designed binder) [9.63-62], the binding result is “binds”.

On to GCDVMQPYWGCEMDFDCLAGCVCHWYNSCGND (designed binder) [9.63-77], for which the binding result is “binds”.

With GCDVMQPYWGCEMDFDCLAGCVCHWYNSCGYM (designed binder) [9.63.44-54], the binding result was “binds”.

As to GCDVMQPYWGCEMDFDCLAGCVCHWYNSCGDL (designed binder) [9.63-16], the binding result is reported as “binds”.

For GCDVMQPYWGCEMDFDCLAGCVCHWYNSCGNN (designed binder) [9.63-65], the binding result is reported as “binds”.

With GCDVMQPYWGCEMDFDCLAGCVCHWYNSCGVN (designed binder) [9.63.44-14 (SEQ ID NO: 514)], the binding result is “binds”.

As for GCDVMQPYWGCEMDFDCLAGCVCHWYNSCGGQ (designed binder) [9.63.44-19], the binding result was “binds”.

As for GCDVMQPYWGCEMDFDCLAGCVCHWYNSCGVE (designed binder) [9.63-68], the binding result is “binds”.

Turning to GCDVMQPYWGCEMDFDCLAGCICHWYNSCGDE (designed binder) [9.63-93], the binding result is on record as “binds”.

In the case of GCDVMQPYWGCEMDFDCLAGCICHWYNSCGPT (designed binder) [9.63-30], the binding result is “binds”.

For GCDVMQPYWGCEMDFDCLAGCVCHWYNSCGEK (designed binder) [9.63-17], the binding result was “binds”.

With GCDVMQPYWGCEMDFDCLAGCICHWYNSCGRP (designed binder) [9.63-74], the binding result is on record as “binds”.

For the molecule GCDVMQPYWGCEMDFDCLAGCVCHWYNSCGGK (designed binder) [9.63-7], the binding result is “binds”.

Take GCDVMQPYWGCEMDFDCLAGCICHWYNSCGRT (designed binder) [9.63.44-2-A]: the binding result was “binds”.

For the molecule GCDVMQPYWGCEMDFDCLAGCVCHWYNSCGRL (designed binder) [9.63-21], the binding result is “binds”.

In the case of GCDVMQPYWGCKQDFDCLAGCICHWYNSCGYL (designed binder) [9.63-10], the binding result is given as “binds”.

As to GCDVMQPYWGCEMDFDCLAGCVCHWYNSCGEP (designed binder) [9.63.44-16], the binding result was “binds”.

Turning to GCNIMLPFWGCKQDSDCLAGCVCQYYQSCGSE (designed binder) [9.54-4], the binding result was “binds”.

Turning to GCNIMLPFWGCKQDSDCLAGCVCQYYQSCGTN (designed binder) [9.54-42], the binding result was “binds”.

In the case of GCNIMLPFWGCKQDSDCLAGCVCQYYQSCGMD (designed binder) [9.54-2], the binding result is recorded as “binds”.

On to GCNIMLPFWGCKQDFDCLAGCVCQYYQSCGDT (designed binder) [9.54-34], for which the binding result is given as “binds”.

On to GCNIMLPFWGCKQDSDCLAGCVCQYYQSCGSD (designed binder) [9.54-21], for which the binding result is reported as “binds”.

With GCNIMLPFWGCKQDSDCLVGCICQYYQSCGSI (designed binder) [9.54-10], the binding result is “binds”.

In the case of GCNIMLPFWGCKQDSDCLAGCVCQYYQSCGDD (designed binder) [9.54-19], the binding result is reported as “binds”.

Take GCNIMLPFWGCKQDFDCLAGCICQYYQSCGGE (designed binder) [9.54-39]: the binding result is reported as “binds”.

Take GCNIMLPFWGCKQDFDCLAGCVCQYYQSCGQH (designed binder) [9.54-9]: the binding result is listed as “binds”.

As for GCNIMLPFWGCKQDSDCLAGCVCQYYQSCGPH (designed binder) [9.54-27], the binding result is listed as “binds”.

GCNIMLPFWGCKQDSDCLAGCICQYYQSCGQN (designed binder) [9.54-12]: the binding result is “binds”.

Turning to GCNIMLPFWGCKQDSDCLAGCVCQYYQSCGTD (designed binder) [9.54-1], the binding result is “binds”.

In the case of GCNIMLPFWGCKQDFDCLAGCVCQYYQSCGRP (designed binder) [9.54-13], the binding result is “binds”.

GCNIMLPFWGCKQDFDCLAGCVCQYYQSCGLE (designed binder) [9.54-5]: the binding result is recorded as “binds”.

Take GCNIMLPFWGCKQDFDCLAGCVCQYYQSCGQY (designed binder) [9.54-6]: the binding result is reported as “binds”.

Consider GCNIMLPFWGCKQDSDCLAGCVCQYYQSCGPE (designed binder) [9.54-15], for which the binding result is reported as “binds”.

Turning to GCNIMLPFWGCKQDSDCLAGCVCQYYQSCGDG (designed binder) [9.54-43], the binding result is “binds”.

GCNIMLPFWGCKQDSDCLAGCVCQYYQSCGEN (designed binder) [9.54-24]: the binding result is listed as “binds”.

In the case of GCNIMLPFWGCKQDFDCLAGCVCQYYQSCGGR (designed binder) [9.54-32], the binding result is reported as “binds”.

In the case of GCNIMLPFWGCKQDSDCLAGCVCQYYQSCGEE (designed binder) [9.54-17], the binding result is on record as “binds”.
